± gives the uncertainty stated by the source.

The values below come from the Human Domainome abundance scans (Beltran et al. 2025).

To fix the notation:
B1: Homeobox protein cut-like 1, residues 548 to 629; numbered along this chain, P39880 (parent)
chain: GEEMDTAEIARQVKEQLIKHNIGQRIFGHYVLGLSQGSVSEILARPKPWNKLTVRGKEPFHKMKQFLSDEQNILALRSIQGR

In this series the parent is B1. Put plainly: abundance fitness (aPCA) (normalised: wild type 0, dead -1); higher = more abundant; growth selection in yeast, the domain comes from the species named. The following applies: Homo sapiens.
On to GEEMATAEIARQVKEQLIKHNIGQRIFGHYVLGLSQGSVSEILARPKPWNKLTVRGKEPFHKMKQFLSDEQNILALRSIQGR [D5A], for which the abundance fitness is -0.204 ± 0.029.
To GEEMETAEIARQVKEQLIKHNIGQRIFGHYVLGLSQGSVSEILARPKPWNKLTVRGKEPFHKMKQFLSDEQNILALRSIQGR [D5E] belongs -0.163 ± 0.03.
Regarding GCEMDTAEIARQVKEQLIKHNIGQRIFGHYVLGLSQGSVSEILARPKPWNKLTVRGKEPFHKMKQFLSDEQNILALRSIQGR [E2C], the abundance fitness is -0.137 ± 0.056.
With GREMDTAEIARQVKEQLIKHNIGQRIFGHYVLGLSQGSVSEILARPKPWNKLTVRGKEPFHKMKQFLSDEQNILALRSIQGR [E2R] the figure was -0.188 ± 0.027; with GVEMDTAEIARQVKEQLIKHNIGQRIFGHYVLGLSQGSVSEILARPKPWNKLTVRGKEPFHKMKQFLSDEQNILALRSIQGR [E2V], -0.17 ± 0.028.
To GDEMDTAEIARQVKEQLIKHNIGQRIFGHYVLGLSQGSVSEILARPKPWNKLTVRGKEPFHKMKQFLSDEQNILALRSIQGR [E2D] belongs -0.154 ± 0.05; to GIEMDTAEIARQVKEQLIKHNIGQRIFGHYVLGLSQGSVSEILARPKPWNKLTVRGKEPFHKMKQFLSDEQNILALRSIQGR [E2I], -0.261 ± 0.11.
To GWEMDTAEIARQVKEQLIKHNIGQRIFGHYVLGLSQGSVSEILARPKPWNKLTVRGKEPFHKMKQFLSDEQNILALRSIQGR [E2W] belongs -0.202 ± 0.036; to GQEMDTAEIARQVKEQLIKHNIGQRIFGHYVLGLSQGSVSEILARPKPWNKLTVRGKEPFHKMKQFLSDEQNILALRSIQGR [E2Q], -0.126 ± 0.04.
With GGEMDTAEIARQVKEQLIKHNIGQRIFGHYVLGLSQGSVSEILARPKPWNKLTVRGKEPFHKMKQFLSDEQNILALRSIQGR [E2G], the abundance fitness was -0.145 ± 0.026.
To GYEMDTAEIARQVKEQLIKHNIGQRIFGHYVLGLSQGSVSEILARPKPWNKLTVRGKEPFHKMKQFLSDEQNILALRSIQGR [E2Y] belongs -0.175 ± 0.066; to GKEMDTAEIARQVKEQLIKHNIGQRIFGHYVLGLSQGSVSEILARPKPWNKLTVRGKEPFHKMKQFLSDEQNILALRSIQGR [E2K], -0.116 ± 0.039.
To GAEMDTAEIARQVKEQLIKHNIGQRIFGHYVLGLSQGSVSEILARPKPWNKLTVRGKEPFHKMKQFLSDEQNILALRSIQGR [E2A] belongs -0.121 ± 0.029; to GSEMDTAEIARQVKEQLIKHNIGQRIFGHYVLGLSQGSVSEILARPKPWNKLTVRGKEPFHKMKQFLSDEQNILALRSIQGR [E2S], -0.087 ± 0.037; to GPEMDTAEIARQVKEQLIKHNIGQRIFGHYVLGLSQGSVSEILARPKPWNKLTVRGKEPFHKMKQFLSDEQNILALRSIQGR [E2P], -0.478 ± 0.052.
With GHEMDTAEIARQVKEQLIKHNIGQRIFGHYVLGLSQGSVSEILARPKPWNKLTVRGKEPFHKMKQFLSDEQNILALRSIQGR [E2H] the figure was -0.256 ± 0.12.
As to GLEMDTAEIARQVKEQLIKHNIGQRIFGHYVLGLSQGSVSEILARPKPWNKLTVRGKEPFHKMKQFLSDEQNILALRSIQGR [E2L], the abundance fitness was -0.193 ± 0.036.
To GFEMDTAEIARQVKEQLIKHNIGQRIFGHYVLGLSQGSVSEILARPKPWNKLTVRGKEPFHKMKQFLSDEQNILALRSIQGR [E2F] belongs -0.107 ± 0.086; to GTEMDTAEIARQVKEQLIKHNIGQRIFGHYVLGLSQGSVSEILARPKPWNKLTVRGKEPFHKMKQFLSDEQNILALRSIQGR [E2T], -0.117 ± 0.038.
For WEEMDTAEIARQVKEQLIKHNIGQRIFGHYVLGLSQGSVSEILARPKPWNKLTVRGKEPFHKMKQFLSDEQNILALRSIQGR [G1W], the abundance fitness was -0.172 ± 0.049.
With PEEMDTAEIARQVKEQLIKHNIGQRIFGHYVLGLSQGSVSEILARPKPWNKLTVRGKEPFHKMKQFLSDEQNILALRSIQGR [G1P] the figure was -0.044 ± 0.083; with SEEMDTAEIARQVKEQLIKHNIGQRIFGHYVLGLSQGSVSEILARPKPWNKLTVRGKEPFHKMKQFLSDEQNILALRSIQGR [G1S], -0.004 ± 0.046.
To TEEMDTAEIARQVKEQLIKHNIGQRIFGHYVLGLSQGSVSEILARPKPWNKLTVRGKEPFHKMKQFLSDEQNILALRSIQGR [G1T] belongs -0.035 ± 0.064.
With NEEMDTAEIARQVKEQLIKHNIGQRIFGHYVLGLSQGSVSEILARPKPWNKLTVRGKEPFHKMKQFLSDEQNILALRSIQGR [G1N] the figure was -0.012 ± 0.11.
Regarding QEEMDTAEIARQVKEQLIKHNIGQRIFGHYVLGLSQGSVSEILARPKPWNKLTVRGKEPFHKMKQFLSDEQNILALRSIQGR [G1Q], the abundance fitness was -0.051 ± 0.089.
With YEEMDTAEIARQVKEQLIKHNIGQRIFGHYVLGLSQGSVSEILARPKPWNKLTVRGKEPFHKMKQFLSDEQNILALRSIQGR [G1Y], the abundance fitness turned out to be 0.075 ± 0.18.
For MEEMDTAEIARQVKEQLIKHNIGQRIFGHYVLGLSQGSVSEILARPKPWNKLTVRGKEPFHKMKQFLSDEQNILALRSIQGR [G1M], the abundance fitness is 0.038 ± 0.073.
With LEEMDTAEIARQVKEQLIKHNIGQRIFGHYVLGLSQGSVSEILARPKPWNKLTVRGKEPFHKMKQFLSDEQNILALRSIQGR [G1L] the figure was -0.03 ± 0.059; with VEEMDTAEIARQVKEQLIKHNIGQRIFGHYVLGLSQGSVSEILARPKPWNKLTVRGKEPFHKMKQFLSDEQNILALRSIQGR [G1V], -0.01 ± 0.037; with REEMDTAEIARQVKEQLIKHNIGQRIFGHYVLGLSQGSVSEILARPKPWNKLTVRGKEPFHKMKQFLSDEQNILALRSIQGR [G1R], -0.041 ± 0.035.
To GEEIDTAEIARQVKEQLIKHNIGQRIFGHYVLGLSQGSVSEILARPKPWNKLTVRGKEPFHKMKQFLSDEQNILALRSIQGR [M4I] belongs 0.101 ± 0.055; to GEELDTAEIARQVKEQLIKHNIGQRIFGHYVLGLSQGSVSEILARPKPWNKLTVRGKEPFHKMKQFLSDEQNILALRSIQGR [M4L], 0.002 ± 0.03.
To GEEGDTAEIARQVKEQLIKHNIGQRIFGHYVLGLSQGSVSEILARPKPWNKLTVRGKEPFHKMKQFLSDEQNILALRSIQGR [M4G] belongs -0.523 ± 0.031.
